Legend:
HCV proteins = biological target: T1, HCV proteins (Hepatitis C virus genotype 1b, UniProt Q9WMX2); test: Validation by Y2H pairwise matrices; type: binding; details: validation of interaction with HCV protein NS3;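 also: yeast two-hybrid pairwise tests of interactions first found in Y2H screens of HCV bait proteins against human cDNA libraries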
T1 construct: expressed in transfected cells

[1] = biological target: T2, HCV ORFs (Gal4-DB fusions) (Hepatitis C virus genotype 1b, UniProt Q9WMX2); type: binding, HCV genotype 1b, isolate con1; details: HCV protein NS3 as bait; human protein as prey
T2 construct: expressed in transfected cells; host or cells: Saccharomyces cerevisiae MAV203 (IMAP1) / AH109 (IMAP2)
T2 sequence (Q9WMX2 1027-1657): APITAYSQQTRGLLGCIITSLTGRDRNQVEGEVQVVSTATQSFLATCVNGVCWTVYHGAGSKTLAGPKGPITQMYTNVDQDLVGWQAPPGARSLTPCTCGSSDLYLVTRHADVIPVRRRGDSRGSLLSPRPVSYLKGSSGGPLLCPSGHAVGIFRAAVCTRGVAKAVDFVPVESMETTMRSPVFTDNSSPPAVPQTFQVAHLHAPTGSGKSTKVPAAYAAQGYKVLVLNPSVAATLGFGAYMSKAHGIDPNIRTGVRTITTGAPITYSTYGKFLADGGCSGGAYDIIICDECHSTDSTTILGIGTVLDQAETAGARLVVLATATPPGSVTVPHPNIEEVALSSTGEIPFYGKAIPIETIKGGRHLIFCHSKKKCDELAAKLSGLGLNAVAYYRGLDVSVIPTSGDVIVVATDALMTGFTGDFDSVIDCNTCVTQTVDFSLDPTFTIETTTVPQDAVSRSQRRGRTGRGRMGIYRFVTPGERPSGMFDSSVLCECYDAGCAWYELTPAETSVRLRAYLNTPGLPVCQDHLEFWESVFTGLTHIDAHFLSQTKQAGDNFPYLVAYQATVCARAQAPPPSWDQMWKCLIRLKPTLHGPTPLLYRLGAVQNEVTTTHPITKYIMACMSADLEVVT

[2] = test system: HCV ORFs (Gal4-DB fusions); type: binding, HCV genotype 1b, isolate con1; details: human protein listed by gene symbol; the value names the HCV protein it interacts with
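For IMAP Y2H IMAP1 (number of IST) in this document: yeast two-hybrid screens using HCV genotype 1b proteins fused to Gal4-DB as baits against prey cDNA libraries from human spleen and foetal brain, IMAP1 via transformation and IMAP2 via mating.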
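For IMAP Y2H IMAP2 (number of IST) in this document: yeast two-hybrid screens using HCV genotype 1b proteins fused to Gal4-DB as baits against prey cDNA libraries from human spleen and foetal brain, IMAP1 via transformation and IMAP2 via mating.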
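For Interaction with viral protein in this document: yeast two-hybrid screens using HCV genotype 1b proteins fused to Gal4-DB as baits against prey cDNA libraries from human spleen and foetal brain, IMAP1 via transformation and IMAP2 via mating.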

T1 sequence (Q9WMX2 1027-1657): as above

Row | Molecule | Y2H matrices (HCV proteins) | IMAP Y2H IMAP1 (number of IST) [1] | Interaction with viral protein [2] | IMAP Y2H IMAP2 (number of IST) [1]
1 | KIF7 (protein, UniProt Q2M1P5 1-1343, looked up) Kinesin-like protein KIF7: MGLEAQRLPGAEEAPVRVALRVRPLLPKELLHGHQSCLQVEPGLGRVTLGRDRHFGFHVVLAEDAGQEAVYQACVQPLLEAFFEGFNATVFAYGQTGSGKTYTMGEASVASLLEDEQGIVPRAMAEAFKLIDENDLLDCLVHVSYLEVYKEEFRDLLEVGTASRDIQLREDERGNVVLCGVKEVDVEGLDEVLSLLEMGNAARHTGATHLNHLSSRSHTVFTVTLEQRGRAPSRLPRPAPGQLLVSKFHFVDLAGSERVLKTGSTGERLKESIQINSSLLALGNVISALGDPQRRGSHIPYRDSKITRILKDSLGGNAKTVMIACVSPSSSDFDETLNTLNYASRAQNIRNRATVNWRPEAERPPEETASGARGPPRHRSETRIIHRGRRAPGPATASAAAAMRLGAECARYRACTDAAYSLLRELQAEPGLPGAAARKVRDWLCAVEGERSALSSASGPDSGIESASVEDQAAQGAGGRKEDEGAQQLLTLQNQVARLEEENRDFLAALEDAMEQYKLQSDRLREQQEEMVELRLRLELVRPGWGGPRLLNGLPPGSFVPRPHTAPLGGAHAHVLGMVPPACLPGDEVGSEQRGEQVTNGREAGAELLTEVNRLGSGSSAASEEEEEEEEPPRRTLHLRRNRISNCSQRAGARPGSLPERKGPELCLEELDAAIPGSRAVGGSKARVQARQVPPATASEWRLAQAQQKIRELAINIRMKEELIGELVRTGKAAQALNRQHSQRIRELEQEAEQVRAELSEGQRQLRELEGKELQDAGERSRLQEFRRRVAAAQSQVQVLKEKKQATERLVSLSAQSEKRLQELERNVQLMRQQQGQLQRRLREETEQKRRLEAEMSKRQHRVKELELKHEQQQKILKIKTEEIAAFQRKRRSGSNGSVVSLEQQQKIEEQKKWLDQEMEKVLQQRRALEELGEELHKREAILAKKEALMQEKTGLESKRLRSSQALNEDIVRVSSRLEHLEKELSEKSGQLRQGSAQSQQQIRGEIDSLRQEKDSLLKQRLEIDGKLRQGSLLSPEEERTLFQLDEAIEALDAAIEYKNEAITCRQRVLRASASLLSQCEMNLMAKLSYLSSSETRALLCKYFDKVVTLREEQHQQQIAFSELEMQLEEQQRLVYWLEVALERQRLEMDRQLTLQQKEHEQNMQLLLQQSRDHLGEGLADSRRQYEARIQALEKELGRYMWINQELKQKLGGVNAVGHSRGGEKRSLCSEGRQAPGNEDELHLAPELLWLSPLTEGAPRTREETRDLVHAPLPLTWKRSSLCGEEQGSPEELRQREAAEPLVGRVLPVGEAGLPWNFGPLSKPRRELRRASPGMIDVRKNPL | + | 1 | NS3 | –
2 | L3MBTL3 (protein, UniProt Q96JM7 1-780, looked up) Lethal(3)malignant brain …: MTESASSTSGQEFDVFSVMDWKDGVGTLPGSDLKFRVNEFGALEVITDENEMENVKKATATTTWMVPTAQEAPTSPPSSRPVFPPAYWTSPPGCPTVFSEKTGMPFRLKDPVKVEGLQFCENCCQYGNVDECLSGGNYCSQNCARHIKDKDQKEERDVEEDNEEEDPKCSRKKKPKLSLKADTKEDGEERDDEMENKQDVRILRGSQRARRKRRGDSAVLKQGLPPKGKKAWCWASYLEEEKAVAVPAKLFKEHQSFPYNKNGFKVGMKLEGVDPEHQSVYCVLTVAEVCGYRIKLHFDGYSDCYDFWVNADALDIHPVGWCEKTGHKLHPPKGYKEEEFNWQTYLKTCKAQAAPKSLFENQNITVIPSGFRVGMKLEAVDKKNPSFICVATVTDMVDNRFLVHFDNWDESYDYWCEASSPHIHPVGWCKEHRRTLITPPGYPNVKHFSWDKYLEETNSLPAPARAFKVKPPHGFQKKMKLEVVDKRNPMFIRVATVADTDDHRVKVHFDGWNNCYDYWIDADSPDIHPVGWCSKTGHPLQPPLSPLELMEASEHGGCSTPGCKGIGHFKRARHLGPHSAANCPYSEINLNKDRIFPDRLSGEMPPASPSFPRNKRTDANESSSSPEIRDQHADDVKEDFEERTESEMRTSHEARGAREEPTVQQAQRRSAVFLSFKSPIPCLPLRWEQQSKLLPTVAGIPASKVSKWSTDEVSEFIQSLPGCEEHGKVFKDEQIDGEAFLLMTQTDIVKIMSIKLGPALKIFNSILMFKAAEKNSHNEL | + | 4 | NS3 | 8
3 | IQWD1 (protein, UniProt Q58WW2 1-860, looked up) DDB1- and CUL4-associated …: MSRGGSYPHLLWDVRKRSLGLEDPSRLRSRYLGRREFIQRLKLEATLNVHDGCVNTICWNDTGEYILSGSDDTKLVISNPYSRKVLTTIRSGHRANIFSAKFLPCTNDKQIVSCSGDGVIFYTNVEQDAETNRQCQFTCHYGTTYEIMTVPNDPYTFLSCGEDGTVRWFDTRIKTSCTKEDCKDDILINCRRAATSVAICPPIPYYLAVGCSDSSVRIYDRRMLGTRATGNYAGRGTTGMVARFIPSHLNNKSCRVTSLCYSEDGQEILVSYSSDYIYLFDPKDDTARELKTPSAEERREELRQPPVKRLRLRGDWSDTGPRARPESERERDGEQSPNVSLMQRMSDMLSRWFEEASEVAQSNRGRGRSRPRGGTSQSDISTLPTVPSSPDLEVSETAMEVDTPAEQFLQPSTSSTMSAQAHSTSSPTESPHSTPLLSSPDSEQRQSVEASGHHTHHQSDNNNEKLSPKPGTGEPVLSLHYSTEGTTTSTIKLNFTDEWSSIASSSRGIGSHCKSEGQEESFVPQSSVQPPEGDSETKAPEESSEDVTKYQEGVSAENPVENHINITQSDKFTAKPLDSNSGERNDLNLDRSCGVPEESASSEKAKEPETSDQTSTESATNENNTNPEPQFQTEATGPSAHEETSTRDSALQDTDDSDDDPVLIPGARYRAGPGDRRSAVARIQEFFRRRKERKEMEELDTLNIRRPLVKMVYKGHRNSRTMIKEANFWGANFVMSGSDCGHIFIWDRHTAEHLMLLEADNHVVNCLQPHPFDPILASSGIDYDIKIWSPLEESRIFNRKLADEVITRNELMLEETRNTITVPASFMLRMLASLNHIRADRLEGDRSEGSGQENENEDEE | + | 2 | NS3 | –
4 | KIF17 (protein, UniProt Q9P2E2 1-1029, looked up) Kinesin-like protein KIF17: MASEAVKVVVRCRPMNQRERELRCQPVVTVDCARAQCCIQNPGAADEPPKQFTFDGAYHVDHVTEQIYNEIAYPLVEGVTEGYNGTIFAYGQTGSGKSFTMQGLPDPPSQRGIIPRAFEHVFESVQCAENTKFLVRASYLEIYNEDVRDLLGADTKQKLELKEHPEKGVYVKGLSMHTVHSVAQCEHIMETGWKNRSVGYTLMNKDSSRSHSIFTISIEMSAVDERGKDHLRAGKLNLVDLAGSERQSKTGATGERLKEATKINLSLSALGNVISALVDGRCKHVPYRDSKLTRLLQDSLGGNTKTLMVACLSPADNNYDETLSTLRYANRAKNIRNKPRINEDPKDALLREYQEEIKKLKAILTQQMSPSSLSALLSRQVPPDPVQVEEKLLPQPVIQHDVEAEKQLIREEYEERLARLKADYKAEQESRARLEEDITAMRNSYDVRLSTLEENLRKETEAVLQVGVLYKAEVMSRAEFASSAEYPPAFQYETVVKPKVFSTTDTLPSDDVSKTQVSSRFAELPKVEPSKSEISLGSSESSSLEETSVSEAFPGPEEPSNVEVSMPTEESRSRYFLDECLGQEAAGHLLGEQNYLPQEEPQEVPLQGLLGLQDPFAEVEAKLARLSSTVARTDAPQADVPKVPVQVPAPTDLLEPSDARPEAEAADDFPPRPEVDLASEVALEVVRTAEPGVWLEAQAPVALVAQPEPLPATAGVKRESVGMEVAVLTDDPLPVVDQQQVLARLQLLEQQVVGGEQAKNKDLKEKHKRRKRYADERRKQLVAALQNSDEDSGDWVLLNVYDSIQEEVRAKSKLLEKMQRKLRAAEVEIKDLQSEFQLEKIDYLATIRRQERDSMLLQQLLEQVQPLIRRDCNYSNLEKILRESCWDEDNGFWKIPHPVITKTSLPVAVSTGPQNKPARKTSAADNGEPNMEDDRYRLMLSRSNSENIASNYFRSKRASQILSTDARKSLTHHNSPPGLSCPLSNNSAIPPTQAPEMPQPRPFRLESLDIPFTKAKRKKSKSNFGSEPL | + | 2 | NS3 | –

From patent US20110091994A1, “Methods for Screening Compounds for Treating and/or Preventing an Hepatitis C Virus Infection” (priority 2008, published 2011)
